Measurements taken from patent US20250073311A1, “DOSAGE REGIME” (ZEALAND PHARMA A/S, priority 2021, published 2025).
Numbered stars: 1 amine (or outer) side, 2 acyl side, 3 side chain; on linkers, the order of the positions; unused ones are H or OH. Square brackets hold non-standard residues; d marks the D form. Side chains are listed from the residue outwards. Ends that are not written are not given here. Peptide text beside a SMILES is read from it. * marks the point of attachment. C20 diacid = O=C(O)CCCCCCCCCCCCCCCCCCC(=O)*; C18 diacid = O=C(O)CCCCCCCCCCCCCCCCC(=O)*; γGlu = O=C(O)[C@H](CCC(=O)[*:2])N[*:1]; AEEA = NCCOCCOCC(=O)O; Aib = CC(C)(N)C(=O)O

T1: human GLP-2 receptor (Homo sapiens, UniProt O95838, D470N)
T1 sequence (O95838 1-553 D470N): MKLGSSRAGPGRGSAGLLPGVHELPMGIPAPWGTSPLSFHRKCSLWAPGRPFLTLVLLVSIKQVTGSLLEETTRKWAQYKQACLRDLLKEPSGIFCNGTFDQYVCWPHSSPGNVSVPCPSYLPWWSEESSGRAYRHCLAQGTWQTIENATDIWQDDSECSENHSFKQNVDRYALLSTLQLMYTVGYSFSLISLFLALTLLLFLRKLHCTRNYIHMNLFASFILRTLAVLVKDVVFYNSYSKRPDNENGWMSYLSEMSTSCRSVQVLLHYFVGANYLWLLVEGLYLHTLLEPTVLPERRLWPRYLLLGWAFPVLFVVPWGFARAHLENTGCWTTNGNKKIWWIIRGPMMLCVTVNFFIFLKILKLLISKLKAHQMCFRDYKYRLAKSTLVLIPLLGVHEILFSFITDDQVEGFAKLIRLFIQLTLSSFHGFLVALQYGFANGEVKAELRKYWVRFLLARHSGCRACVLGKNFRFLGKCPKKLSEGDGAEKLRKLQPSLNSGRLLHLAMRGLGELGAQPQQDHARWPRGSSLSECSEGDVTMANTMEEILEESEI

T2: human GLP-2 receptor (hGLP2-R) (human, UniProt O95838)
T2 sequence: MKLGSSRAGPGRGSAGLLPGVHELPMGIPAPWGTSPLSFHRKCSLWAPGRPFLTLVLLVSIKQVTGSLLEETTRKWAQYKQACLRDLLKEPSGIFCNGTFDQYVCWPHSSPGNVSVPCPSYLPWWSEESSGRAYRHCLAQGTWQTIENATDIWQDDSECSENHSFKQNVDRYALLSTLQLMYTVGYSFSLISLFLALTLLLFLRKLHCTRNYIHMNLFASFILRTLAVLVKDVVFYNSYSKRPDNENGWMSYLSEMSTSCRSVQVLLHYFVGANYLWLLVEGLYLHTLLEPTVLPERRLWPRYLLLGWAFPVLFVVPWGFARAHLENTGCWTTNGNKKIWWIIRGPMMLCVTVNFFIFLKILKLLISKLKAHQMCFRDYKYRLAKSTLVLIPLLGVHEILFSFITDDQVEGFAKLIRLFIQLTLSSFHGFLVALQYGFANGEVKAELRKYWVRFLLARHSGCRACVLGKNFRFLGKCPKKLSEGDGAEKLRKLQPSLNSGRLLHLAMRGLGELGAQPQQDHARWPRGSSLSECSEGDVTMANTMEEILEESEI

B1: Compound 44 (peptide)
peptide: H-H[Aib]EGSFTSELATILEGK([AEEA-AEEA-γGlu-C20 diacid])AARDFIAWLIEHKITD-OH
SMILES: CC[C@H](C)[C@H](NC(=O)[C@H](Cc1ccccc1)NC(=O)[C@H](CC(=O)O)NC(=O)[C@H](CCCNC(=N)N)NC(=O)[C@H](C)NC(=O)[C@H](C)NC(=O)[C@H](CCCCNC(=O)COCCOCCNC(=O)COCCOCCNC(=O)CC[C@H](NC(=O)CCCCCCCCCCCCCCCCCCC(=O)O)C(=O)O)NC(=O)CNC(=O)[C@H](CCC(=O)O)NC(=O)[C@H](CC(C)C)NC(=O)[C@@H](NC(=O)[C@@H](NC(=O)[C@H](C)NC(=O)[C@H](CC(C)C)NC(=O)[C@H](CCC(=O)O)NC(=O)[C@H](CO)NC(=O)[C@@H](NC(=O)[C@H](Cc1ccccc1)NC(=O)[C@H](CO)NC(=O)CNC(=O)[C@H](CCC(=O)O)NC(=O)C(C)(C)NC(=O)[C@@H](N)Cc1c[nH]cn1)[C@@H](C)O)[C@@H](C)O)[C@@H](C)CC)C(=O)N[C@@H](C)C(=O)N[C@@H](Cc1c[nH]c2ccccc12)C(=O)N[C@@H](CC(C)C)C(=O)N[C@H](C(=O)N[C@@H](CCC(=O)O)C(=O)N[C@@H](Cc1c[nH]cn1)C(=O)N[C@@H](CCCCN)C(=O)N[C@H](C(=O)N[C@H](C(=O)N[C@@H](CC(=O)O)C(=O)O)[C@@H](C)O)[C@@H](C)CC)[C@@H](C)CC
B2: Compound 43 (peptide)
peptide: H-H[Aib]EGSFTSELATILDK([AEEA-AEEA-γGlu-C20 diacid])KAARDFIAWLIEHKITD-OH
SMILES: CC[C@H](C)[C@H](NC(=O)[C@H](Cc1ccccc1)NC(=O)[C@H](CC(=O)O)NC(=O)[C@H](CCCNC(=N)N)NC(=O)[C@H](C)NC(=O)[C@H](C)NC(=O)[C@H](CCCCN)NC(=O)[C@H](CCCCNC(=O)COCCOCCNC(=O)COCCOCCNC(=O)CC[C@H](NC(=O)CCCCCCCCCCCCCCCCCCC(=O)O)C(=O)O)NC(=O)[C@H](CC(=O)O)NC(=O)[C@H](CC(C)C)NC(=O)[C@@H](NC(=O)[C@@H](NC(=O)[C@H](C)NC(=O)[C@H](CC(C)C)NC(=O)[C@H](CCC(=O)O)NC(=O)[C@H](CO)NC(=O)[C@@H](NC(=O)[C@H](Cc1ccccc1)NC(=O)[C@H](CO)NC(=O)CNC(=O)[C@H](CCC(=O)O)NC(=O)C(C)(C)NC(=O)[C@@H](N)Cc1c[nH]cn1)[C@@H](C)O)[C@@H](C)O)[C@@H](C)CC)C(=O)N[C@@H](C)C(=O)N[C@@H](Cc1c[nH]c2ccccc12)C(=O)N[C@@H](CC(C)C)C(=O)N[C@H](C(=O)N[C@@H](CCC(=O)O)C(=O)N[C@@H](Cc1c[nH]cn1)C(=O)N[C@@H](CCCCN)C(=O)N[C@H](C(=O)N[C@H](C(=O)N[C@@H](CC(=O)O)C(=O)O)[C@@H](C)O)[C@@H](C)CC)[C@@H](C)CC
B3: Compound 46 (peptide)
peptide: H-H[Aib]EGTFTSELATILDEQAAK([AEEA-AEEA-γGlu-C20 diacid])DFIAWLIEHKITD-OH
SMILES: CC[C@H](C)[C@H](NC(=O)[C@H](Cc1ccccc1)NC(=O)[C@H](CC(=O)O)NC(=O)[C@H](CCCCNC(=O)COCCOCCNC(=O)COCCOCCNC(=O)CC[C@H](NC(=O)CCCCCCCCCCCCCCCCCCC(=O)O)C(=O)O)NC(=O)[C@H](C)NC(=O)[C@H](C)NC(=O)[C@H](CCC(N)=O)NC(=O)[C@H](CCC(=O)O)NC(=O)[C@H](CC(=O)O)NC(=O)[C@H](CC(C)C)NC(=O)[C@@H](NC(=O)[C@@H](NC(=O)[C@H](C)NC(=O)[C@H](CC(C)C)NC(=O)[C@H](CCC(=O)O)NC(=O)[C@H](CO)NC(=O)[C@@H](NC(=O)[C@H](Cc1ccccc1)NC(=O)[C@@H](NC(=O)CNC(=O)[C@H](CCC(=O)O)NC(=O)C(C)(C)NC(=O)[C@@H](N)Cc1c[nH]cn1)[C@@H](C)O)[C@@H](C)O)[C@@H](C)O)[C@@H](C)CC)C(=O)N[C@@H](C)C(=O)N[C@@H](Cc1c[nH]c2ccccc12)C(=O)N[C@@H](CC(C)C)C(=O)N[C@H](C(=O)N[C@@H](CCC(=O)O)C(=O)N[C@@H](Cc1c[nH]cn1)C(=O)N[C@@H](CCCCN)C(=O)N[C@H](C(=O)N[C@H](C(=O)N[C@@H](CC(=O)O)C(=O)O)[C@@H](C)O)[C@@H](C)CC)[C@@H](C)CC

How the values were obtained:
[1] = biological target: T1, human GLP-2 receptor; test: GLP-2 receptor potency assay (cAMP AlphaScreen); assay type: cell-based; conditions: HEK293 cells expressing human GLP-2R, cAMP response; N/A = no detectable activity
Description: The hGLP2-R was purchased from MRC-geneservice, Babraham, Cambridge as an Image clone: 5363415 (11924-117). For subcloning into a mammalian expression vector, primers for subcloning were obtained from DNA-Technology, Risskov, Denmark. The 5′ and 3′ primers used for the PCR reaction include terminal restriction sites for cloning and the context of the 5′ primer is modified to a Kozak consensus without changing the sequence of the product encoded by the ORF. A standard PCR reaction was run using Image clone 5363415 (11924-117) as a template with the above mentioned primers and Polymerase Herculase II Fusion in a total vol. of 50 μl. The generated PCR product was purified using GFX PCR and Gel band purification kit, digested with restriction enzymes and cloned into the mammalian expression vector using Rapid DNA Ligation Kit. Ligation reaction was transformed to XL10 Gold Ultracompetent cells and colonies were picked for DNA production using Endofree Plasmid maxi kit. Subsequent sequence analysis was conducted by MWG Eurofins, Germany.
HEK293 cells were transfected using the Lipofectamine PLUS transfection method. The day before transfection, HEK293 cells were seeded in two T75 flasks at a density of 2×10^6 cells/T75 flask in cell culturing medium without antibiotics. […] Following 4 weeks in G418 selection, clones were picked and tested in a functional GLP-2 receptor potency assay as described below.
Data from test compounds eliciting an increase in the intracellular level of cAMP were normalized relative to the positive and negative control (vehicle) to calculate the EC50 and maximal response from the concentration response curve.

[2] = biological target: human glucagon-like peptide 1 receptor (GLP-1R) (human, UniProt P43220); test: cell-based or functional assay
[3] = biological target: T2, human GLP-2 receptor (hGLP2-R); test: cell-based or functional assay
[4] = biological target: human glucagon-like peptide 1 receptor (GLP-1R) (human) (UniProt P43220)
[5] = biological target: human GLP-2 receptor (hGLP2-R) (human) (UniProt O95838)

Sequence of human glucagon-like peptide 1 receptor (GLP-1R) (human) (P43220 24-463): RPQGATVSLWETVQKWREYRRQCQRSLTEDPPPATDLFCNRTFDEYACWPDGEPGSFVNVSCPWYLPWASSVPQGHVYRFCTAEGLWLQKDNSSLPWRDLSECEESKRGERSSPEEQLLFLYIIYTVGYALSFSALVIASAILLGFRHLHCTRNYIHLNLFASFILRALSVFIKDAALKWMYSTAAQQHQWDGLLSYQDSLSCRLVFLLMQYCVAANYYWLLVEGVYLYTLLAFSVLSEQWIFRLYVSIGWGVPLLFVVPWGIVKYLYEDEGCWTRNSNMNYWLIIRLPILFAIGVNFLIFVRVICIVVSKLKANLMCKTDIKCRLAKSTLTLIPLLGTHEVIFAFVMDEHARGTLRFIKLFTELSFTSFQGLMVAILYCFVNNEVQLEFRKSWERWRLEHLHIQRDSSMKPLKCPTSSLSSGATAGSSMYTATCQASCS

Row | Molecule | EC50 [1] [nM] | EC50 GLP-1 (nM), cAMP AlphaScreen [2] [nM] | EC50 GLP-2 (nM), cAMP AlphaScreen [3] [nM] | EC50 GLP-1 (nM), cAMP AlphaScreen [4] [nM] | EC50 GLP-2 (nM), cAMP AlphaScreen [5] [nM]
1 | CC[C@H](C)[C@H](NC(=O)[C@H](Cc1ccccc1)NC(=O)[C@H](CC(=O)O)NC(=O)[C@H](CCCNC(=N)N)NC(=O)[C@H](C)NC(=O)[C@H](C)NC(=O)[C@H](CCC(N)=O)NC(=O)[C@H](CCC(=O)O)NC(=O)[C@H](CC(=O)O)NC(=O)[C@H](CC(C)C)NC(=O)[C@@H](NC(=O)[C@@H](NC(=O)[C@H](C)NC(=O)[C@H](CCCCNC(=O)COCCOCCNC(=O)[C@H](CCCCN)NC(=O)[C@H](CCC(=O)O)NC(=O)[C@H](CCCCN)NC(=O)CC[C@H](NC(=O)CCCCCCCCCCCCCCCCCCC(=O)O)C(=O)O)NC(=O)[C@H](CCC(=O)O)NC(=O)[C@H](CO)NC(=O)[C@@H](NC(=O)[C@H](Cc1ccccc1)NC(=O)[C@H](CO)NC(=O)CNC(=O)[C@H](CCC(=O)O)NC(=O)C(C)(C)NC(=O)[C@@H](N)Cc1c[nH]cn1)[C@@H](C)O)[C@@H](C)O)[C@@H](C)CC)C(=O)N[C@@H](C)C(=O)N[C@@H](Cc1c[nH]c2ccccc12)C(=O)N[C@@H](CC(C)C)C(=O)N[C@H](C(=O)N[C@@H](CCC(=O)O)C(=O)N[C@@H](Cc1c[nH]cn1)C(=O)N[C@@H](CCCCN)C(=O)N[C@H](C(=O)N[C@H](C(=O)N[C@@H](CC(=O)O)C(=O)O)[C@@H](C)O)[C@@H](C)CC)[C@@H](C)CC [Compound 53] (H-H[Aib]EGSFTSEK([AEEA-Lys-Glu-Lys-γGlu-C20 diacid])ATILDEQAARDFIAWLIEHKITD-OH) | 0.24 | – | – | – | –
2 | B1 | – | 0.063 | 0.14 | – | –
3 | H[Aib]EGSFSSELATILDK([γGlu-C18 diacid])QAARDFIAWLIQHKITD (ends and bridges not checked) [reference compound B] | – | – | – | 3.9 | 0.28
4 | H-H[Aib]EGSFTSELATILDEQAAK([AEEA-AEEA-γGlu-C20 diacid])DFIAWLIEHKITD-OH [Compound 45] | – | 1.4 | 0.36 | – | –
5 | H[Aib]DGSFSSELATILDK([γGlu-C18 diacid])QAARDFIAWLIQHKITD (ends and bridges not checked) [reference compound A] | – | – | – | 0.49 | 0.083
6 | B2 | – | 0.096 | 0.15 | – | –
7 | B3 | – | 0.26 | 0.38 | – | –
